Key:
hMyoD promoter = test: NHR-promoter luciferase screen, hMyoD promoter; type: cell-based, human; conditions: for Luc. act., normalized to lacZ / Normalized Luc. act., normalized to control: MyoD promoter reporter, co-transfected HR, without or with its ligand; for Normalized Luc. act., normalized to control: relative to control; for luciferase activity normalized to lacZ activity and to a control, hMyoD: hMyoD promoter-luciferase, CV-1 cells, NHR +/- ligand, control = 1.00
In short: (§1)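 CV-1 cells were co-transfected with 50 ng NHR (homodimer or NHR/RXR heterodimer), 100 ng promoter-luciferase construct and 50 ng LacZ. Luciferase was normalized to LacZ and to a no-NHR/no-ligand control.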

hIRF7 promoter = test: NHR-promoter luciferase screen, hIRF7 promoter; type: cell-based, human; conditions: for Normalized Luc. act., normalized to control / Luc. act., normalized to lacZ: IRF7 promoter reporter; for Normalized Luc. act., normalized to control: HR without or with its ligand, relative to control; for Luc. act., normalized to lacZ: hormone receptor (HR) without or with its ligand; for hIRF7 promoter reporter activity: transcription factor +/- ligand, control = 1.00
In short: as §1

mPOMC promoter = test: NHR-promoter luciferase screen, mPOMC promoter; type: cell-based, mouse; conditions: for Results of assays of transcription factor (+/- ligand) with mPOMC: Table 6d, luciferase activity relative to control (control = 1.00); for Luc. act., normalized to lacZ / Normalized Luc. act., normalized to control: mPOMC promoter, HR component with or without ligand; for Normalized Luc. act., normalized to control: relative to control
In short: as §1

mAdiponectin promoter = test: NHR-promoter luciferase screen, mAdiponectin promoter; type: cell-based, mouse; conditions: for Luc. act., normalized to lacZ / Normalized Luc. act., normalized to control: Adiponectin, HR component without or with its ligand; for mAdiponectin promoter reporter activity: transcription factor +/- ligand, control = 1.00
In short: as §1

mAgrp promoter = test: NHR-promoter luciferase screen, mAgrp promoter; type: cell-based, mouse; conditions: for Results of assays of transcription factor (+/- ligand) with mAgrp: Table 6d, luciferase activity relative to control (control = 1.00); for Luc. act., normalized to lacZ / Normalized Luc. act., normalized to control: mAgrp promoter, HR component with or without ligand; for Normalized Luc. act., normalized to control: relative to control
In short: as §1

Molecule	Luc. act., normalized to lacZ (hMyoD promoter)	Normalized Luc. act., normalized to control (hMyoD promoter)	luciferase activity normalized to lacZ activity and to a control, hMyoD (hMyoD promoter)	Normalized Luc. act., normalized to control (hIRF7 promoter)	Luc. act., normalized to lacZ (hIRF7 promoter)	hIRF7 promoter reporter activity (hIRF7 promoter)	Results of assays of transcription factor (+/- ligand) with mPOMC (mPOMC promoter)	Luc. act., normalized to lacZ (mPOMC promoter)	Normalized Luc. act., normalized to control (mPOMC promoter)	Luc. act., normalized to lacZ (mAdiponectin promoter)	Normalized Luc. act., normalized to control (mAdiponectin promoter)	mAdiponectin promoter reporter activity (mAdiponectin promoter)	Results of assays of transcription factor (+/- ligand) with mAgrp (mAgrp promoter)	Luc. act., normalized to lacZ (mAgrp promoter)	Normalized Luc. act., normalized to control (mAgrp promoter)	luciferase/LacZ, mAgrp (selected results) (mAgrp promoter; mAgrp promoter-luciferase, NHR +/- ligand, control = 1.0)
Erb: Estrogen Receptor β (NR3A2, ERb), cDNA driver (protein, UniProt Q92731 1-530, looked up) Estrogen receptor beta: MDIKNSPSSLNSPSSYNCSQSILPLEHGSIYIPSSYVDSHHEYPAMTFYSPAVMNYSIPSNVTNLEGGPGRQTTSPNVLWPTPGHLSPLVVHRQLSHLYAEPQKSPWCEARSLEHTLPVNRETLKRKVSGNRCASPVTGPGSKRDAHFCAVCSDYASGYHYGVWSCEGCKAFFKRSIQGHNDYICPATNQCTIDKNRRKSCQACRLRKCYEVGMVKCGSRRERCGYRLVRRQRSADEQLHCAGKAKRSGGHAPRVRELLLDALSPEQLVLTLLEAEPPHVLISRPSAPFTEASMMMSLTKLADKELVHMISWAKKIPGFVELSLFDQVRLLESCWMEVLMMGLMWRSIDHPGKLIFAPDLVLDRDEGKCVEGILEIFDMLLATTSRFRELKLQHKEYLCVKAMILLNSSMYPLVTATQDADSSRKLAHLLNAVTDALVWVIAKSGISSQQQSMRLANLLMLLSHVRHASNKGMEHLLNMKCKNVVPVYDLLLEMLNAHVLRGCKSSITGSECSPAEDSKSKEGSQNPQSQ	50.6	0.8	0.80	1.4	37.5	1.42	1.00	69.1	1.0	68.6	1.1	1.09	0.98	39.0	1.0	–
CTF2: COUP-TF2 (NR2F2), cDNA driver (protein, UniProt P24468 1-414, looked up) COUP transcription factor 2: MAMVVSTWRDPQDEVPGSQGSQASQAPPVPGPPPGAPHTPQTPGQGGPASTPAQTAAGGQGGPGGPGSDKQQQQQHIECVVCGDKSSGKHYGQFTCEGCKSFFKRSVRRNLSYTCRANRNCPIDQHHRNQCQYCRLKKCLKVGMRREAVQRGRMPPTQPTHGQFALTNGDPLNCHSYLSGYISLLLRAEPYPTSRFGSQCMQPNNIMGIENICELAARMLFSAVEWARNIPFFPDLQITDQVALLRLTWSELFVLNAAQCSMPLHVAPLLAAAGLHASPMSADRVVAFMDHIRIFQEQVEKLKALHVDSAEYSCLKAIVLFTSDACGLSDVAHVESLQEKSQCALEEYVRSQYPNQPTRFGKLLLRLPSLRTVSSSVIEQLFFVRLVGKTPIETLIRDMLLSGSSFNWPYMAIQ	60.9	1.0	0.96	1.0	25.6	0.97	0.94	64.6	0.9	75.1	1.2	1.20	1.08	42.7	1.1	–
ERR3: Estrogen Related Receptor γ (NR3B3, ERRg), cDNA driver (protein, UniProt P62508 1-458, looked up) Estrogen-related receptor …: MDSVELCLPESFSLHYEEELLCRMSNKDRHIDSSCSSFIKTEPSSPASLTDSVNHHSPGGSSDASGSYSSTMNGHQNGLDSPPLYPSAPILGGSGPVRKLYDDCSSTIVEDPQTKCEYMLNSMPKRLCLVCGDIASGYHYGVASCEACKAFFKRTIQGNIEYSCPATNECEITKRRRKSCQACRFMKCLKVGMLKEGVRLDRVRGGRQKYKRRIDAENSPYLNPQLVQPAKKPYNKIVSHLLVAEPEKIYAMPDPTVPDSDIKALTTLCDLADRELVVIIGWAKHIPGFSTLSLADQMSLLQSAWMEILILGVVYRSLSFEDELVYADDYIMDEDQSKLAGLLDLNNAILQLVKKYKSMKLEKEEFVTLKAIALANSDSMHIEDVEAVQKLQDVLHEALQDYEAGQHMEDPRRAGKMLMTLPLLRQTSTKAVQHFYNIKLEGKVPMHKLFLEMLEAKV	129.6	2.0	2.05	2.1	55.2	2.10	2.02	139.4	2.0	69.7	1.1	1.11	2.12	84.0	2.1	–
CTF3: COUP-TF3 (NR2F6), cDNA driver (protein, UniProt P10588 1-404, looked up) Nuclear receptor subfamily 2 …: MAMVTGGWGGPGGDTNGVDKAGGYPRAAEDDSASPPGAASDAEPGDEERPGLQVDCVVCGDKSSGKHYGVFTCEGCKSFFKRSIRRNLSYTCRSNRDCQIDQHHRNQCQYCRLKKCFRVGMRKEAVQRGRIPHSLPGAVAASSGSPPGSALAAVASGGDLFPGQPVSELIAQLLRAEPYPAAAGRFGAGGGAAGAVLGIDNVCELAARLLFSTVEWARHAPFFPELPVADQVALLRLSWSELFVLNAAQAALPLHTAPLLAAAGLHAAPMAAERAVAFMDQVRAFQEQVDKLGRLQVDSAEYGCLKAIALFTPDACGLSDPAHVESLQEKAQVALTEYVRAQYPSQPQRFGRLLLRLPALRAVPASLISQLFFMRLVGKTPIETLIRDMLLSGSTFNWPYGSGQ	35.6	0.6	0.56	1.0	25.5	0.97	0.75	51.8	0.8	71.0	1.1	1.13	0.86	34.2	0.9	–
CTF1: COUP-TF1 (NR2F1), cDNA driver (protein, UniProt P10589 1-423, looked up) COUP transcription factor 1: MAMVVSSWRDPQDDVAGGNPGGPNPAAQAARGGGGGAGEQQQQAGSGAPHTPQTPGQPGAPATPGTAGDKGQGPPGSGQSQQHIECVVCGDKSSGKHYGQFTCEGCKSFFKRSVRRNLTYTCRANRNCPIDQHHRNQCQYCRLKKCLKVGMRREAVQRGRMPPTQPNPGQYALTNGDPLNGHCYLSGYISLLLRAEPYPTSRYGSQCMQPNNIMGIENICELAARLLFSAVEWARNIPFFPDLQITDQVSLLRLTWSELFVLNAAQCSMPLHVAPLLAAAGLHASPMSADRVVAFMDHIRIFQEQVEKLKALHVDSAEYSCLKAIVLFTSDACGLSDAAHIESLQEKSQCALEEYVRSQYPNQPSRFGKLLLRLPSLRTVSSSVIEQLFFVRLVGKTPIETLIRDMLLSGSSFNWPYMSIQCS	44.8	0.7	0.71	0.9	24.8	0.94	0.73	50.0	0.7	118.7	1.9	1.89	0.71	28.2	0.7	–
ERR2: Estrogen Related Receptor β (NR3B2, ERRb), cDNA driver (protein, UniProt O95718 1-433, looked up) Steroid hormone receptor ERR2: MSSDDRHLGSSCGSFIKTEPSSPSSGIDALSHHSPSGSSDASGGFGLALGTHANGLDSPPMFAGAGLGGTPCRKSYEDCASGIMEDSAIKCEYMLNAIPKRLCLVCGDIASGYHYGVASCEACKAFFKRTIQGNIEYSCPATNECEITKRRRKSCQACRFMKCLKVGMLKEGVRLDRVRGGRQKYKRRLDSESSPYLSLQISPPAKKPLTKIVSYLLVAEPDKLYAMPPPGMPEGDIKALTTLCDLADRELVVIIGWAKHIPGFSSLSLGDQMSLLQSAWMEILILGIVYRSLPYDDKLVYAEDYIMDEEHSRLAGLLELYRAILQLVRRYKKLKVEKEEFVTLKALALANSDSMYIEDLEAVQKLQDLLHEALQDYELSQRHEEPWRTGKLLLTLPLLRQTAAKAVQHFYSVKLQGKVPMHKLFLEMLEAKV	164.8	2.6	2.60	2.3	60.5	2.30	1.57	108.6	1.6	55.3	0.9	0.88	1.64	65.0	1.6	1.6

Source: patent publication US20110263454A1, “Methods of Identifying Functional Characteristics of Promoters, Transcription Modifying Proteins and Transcription Modulating Agents” (Salk Institute for Biological Studies, priority 2008, published 2011)
